The data set can be described thus: yeast display, Sf9 membrane polyspecificity reagent, FACS + sequencing; frameworks hold sequencing errors. The method, boiled down:
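Polyreactivity labels are assigned by the sorting gate from which each nanobody was recovered. The gates were low and high (top ~1%), set on anti-HA fluorescence for expression and streptavidin fluorescence for reagent binding. Before sorting, galactose-induced (36–48 hours) yeast display cells were stained for 1 hour at 4 °C with 10% biotinylated, detergent-solubilized Sf9 membrane reagent.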
As to “QVQLVESGGGLVHAGGSLRLICASSGFIFWAYAMGWYRQAPGKERELVAAISNNGVSTYYADSVKGRFTISRDIAKNTVYLQMNSLIPEDTAVYYCGATGVRSKRLASQWKLDYWGQGTQVTVST”, the “polyreactivity (PSR sort gate)” value is “high polyreactivity”. Next, “QVQLVESGGGLVHAGGSLRLSCAAAGSTFYYYAMGWYRQAPGKERELVARISDGDSTNYADSVKGRFTISRDNAKNTVYLQMNSLKPEDTAVYYCAAQHWYLGYGYWGQGTQVTVSS”: “low polyreactivity”. As for “QVQLVESGGGLVHAGGSLRLSCAACGTTFINYAMGWYRQAPGKVRELVAVITSDDGSTYYADSVKGRFTISRDNAKNTVYLQMNSLKPEDTAVYYCAADYYDQRYRPGPWYDYWGQGTQVTVSS”, the “polyreactivity (PSR sort gate)” value is listed as “low polyreactivity”. Then “QVQLVESGGGLVHAGGSLRLSCAASGFIFPWYAMGWSRQAPGKERELVAIISWDTGSTYYADSVKGRFTISRDNAKNTVYLQINRLKPEDSAVYYCVAYVGSTYSAPEYYWGQGTQVTVSS”, with “low polyreactivity”.

Regarding “QVQLVESGGGLVHAGGSLRLSCAASGFIYPGNAKGWYIQAPGKERELVAAISNSGSRTYYADSVKGRFTISRDHAMNTVYLQMNSLKPEDTAVYYCNADVDNRGWPYDYWGQGTQVNVSS”, the “polyreactivity (PSR sort gate)” value is recorded as “low polyreactivity”.

In the case of “QVQLVESGGGLVHAGGSLRLSCAASGFTCPYYPMGWYRQAPGKERELVDVISRSGGSTYYADSVKGRFTISRDNAKNTVYLQMNSLKPEDTAVYYCAKRYSLTGGKRTGYYWGQGTQVTVSS”, the “polyreactivity (PSR sort gate)” value is on record as “high polyreactivity”.

Turning to “QVQLVESGGGLVHAGGSLRLSCAASGFTFGDNAMGSYRQAPGKERELVADIDSDGSTYYADSVKGRFTISRDNAKNTVYLQMNSLKPEDTAVYYCAKRQAFKQAPYEYWGQCTQVTVSS”, the “polyreactivity (PSR sort gate)” value is reported as “low polyreactivity”. Then “QVQLVESGGGLVHAGGSLRLSCAASGFTFIRYAMGWYRQAPGKERELVAAIRGTGTSTYYADSVKGRFTISRDNAKNTVYFQMNSLKPEDTAVYYCAAVHWWSSSLGMYYWGQGSQVTVSS”, with “low polyreactivity”. Next, “QVQLVESGGGLVHAGGSLRLSCAASGFTFLRYVMGWYRQTPGKERELVAAISYSGGRTYYADSVKGRFTISRDNAKKTVYLQMNSLKPEDTAVYYCAAESFYPAGFRGYWGQGTQVTVSS”: “high polyreactivity”; “QVQLVESGGGLVHAGGSLRLSCAASGFTFSYYAMVWYREAPGKEREFVAAISRSGGSTYYADSVKGRFTISRDNAKNTVYLQMNSLYPVDTAVYYCATELSYRHGYWGQGTQVSVSS”: “high polyreactivity”.

As to “QVQLVESGGGLVHAGGSLRLSCAASGFTFTFYAMGWYRQAPGKERELVATISSNGGSTYYADSVKGRFTISRDNAKNTVYLQMNSLKPEDTAVYYCAAITSYYGYYYWGQGTQVTVSS”, the “polyreactivity (PSR sort gate)” value was “high polyreactivity”.

With “QVQLVESGGGLVHAGGSLRLSCAASGGIFPHNVMGWYRQAPGKEREMVAAITWSGGRTYYADSVKGRFTNSRDNAKNTVYFQLNSLKPEDTAVYYCAADPFYLTKSGGWGDYWGQGTQVTVSS”, the “polyreactivity (PSR sort gate)” value is on record as “low polyreactivity”. Next, “QVQLVESGGGLVHAGGSLRLSCAASGGTFVYNAMGWYRQAPGKERELVAVISKRGGSTYYADSVKGRFTISRDNAKNTVYLEMISLKPEDTAVYYCAVSYRSFRYYWERYYSWGQGTQVTVSS”: “high polyreactivity”; “QVQLVESGGGLVHAGGSLRLSCAASGGTLYRYAMGWYRQAPGKERELVAGISSSGGRTYYADSVKGRFTISRDNAKNTVYLQMNSLKPEDTAVYYCAKYWVSSYDYWGQGTQVTVSS”: “high polyreactivity”. “QVQLVESGGGLVHAGGSLRLSCAASGIIFRSYAMGWYRQAPGKERELVAGISLSGGSTYYADSVKGLFTISRDNSKNTVYLQMKSLKPEDTAVYYCATRNHYFRALRYGYWGQGTQVTVSS”: the “polyreactivity (PSR sort gate)” value is reported as “high polyreactivity”. Next, “QVQLVESGGGLVHAGGSLRLSCAASGIIFSWYAMGWYRQAPGKERELVAAITSDGNTYYADSVKGRFTISRDNAKNTVYLQMNSLKPEDTAVYYCIARTYVRRPLGYWGQGWQVTVSS”: “high polyreactivity”; “QVQLVESGGGLVHAGGSLRLSCAASGITFERYAMGWYRQAPGKERELVAAITSSGGSTYYADSVKGRFTISRDNAKNTVYLQMNSLKPEDTAVYYCAARTAYTPRHDYWGQGTEVTVSS”: “high polyreactivity”. Next, “QVQLVESGGGLVHAGGSLRLSCAASGITFYDYDMGWYRQAPGKERELVATITSGGDTNYADSVKGRITISRDNAKNTVYLQMNSLKPEDTAVYYCAAGSFFRDSYARIYRWFYYWGQGTQVTVSS”: “low polyreactivity”; “QVQLVESGGGLVHAGGSLRLSCAASGRIFAPYAMGWYRQAPGKERELVAAITSRGGSTYYADSVKGRFTISRDTAKNTVYLQMNSLKPEDTAVYYCNADYYGRPYYYWGQGTQVTVSS”: “high polyreactivity”; “QVQLVESGGGLVHAGGSLRLSCAASGRIFIANTMGWYRQATGKERELVAAITQRGDSTYYADSVKGRCTISRDNAKNTVDLQMNSLKPEDTAVYYCAARYYLSSYVRYNYWGQGTQVTVSS”: “high polyreactivity”.

With “QVQLVESGGGLVHAGGSLRLSCAASGRIFQHYAMGWYRKAPGKERELVAAISWRGGSTYYADSVKGRFTISRDNAKNTVYLQMNSLIPEDTAVYYCAAGYPGRNPGFDYWGQGNQVTVSS”, the “polyreactivity (PSR sort gate)” value is on record as “high polyreactivity”. Then “QVQLVESGGGLVHAGGSLRLSCAASGRIFSPYARGWYRQAPGKERELDAAMSGSRGRTYYADSVKGRFTISRDNAKNTEYLLMNRLKPEDTADYYCAAYRAITRANYLDYWGQGTQVTVSS”, with “high polyreactivity”. Consider “QVQLVESGGGLVHAGGSLRLSCAASGRITTYYTMGRYRHAPGKERELVAAISWSGTSTYYADSVKGRFTISRDNAKNTVYLQMNSLKPEATAVYYCNAGWRYPLDSVTDDYWGQGTQVTVSS”, for which the “polyreactivity (PSR sort gate)” value was “high polyreactivity”. “QVQLVESGGGLVHAGGSLRLSCAASGRTFAGNVMGWYIQAPGKEREFVAAISLSGGNTYYADSVKGRFTISRDNAKNTVYLQMNSLKPEDTAVYYCAADYEYSGYGYWGQGTQVTVSS”: the “polyreactivity (PSR sort gate)” value is given as “high polyreactivity”.

For the sequence “QVQLVESGGGLVHAGGSLRLSCAASGRTFHGYAMGWYIQAPGKERELVAAITSSGARTYYADSVKGRFTISRDNAKNTVYLQMNSLKPEDTAVYYCAVNWLRGMDWGQGTQVTVSS”, the “polyreactivity (PSR sort gate)” value is recorded as “high polyreactivity”. Next, “QVQLVESGGGLVHAGGSLRLSCAASGRTFLLYAMGWYRQAPGKERELVARITGRGGRTYYADSVKGRFTISRDNAKNTVYLQMNSLKPEDTAVYYCNAKGYQGQWERYDYWGQGTQVTVSS”: “high polyreactivity”.

As to “QVQLVESGGGLVHAGGSLRLSCAASGRTFQWNRMVWYRQAPGKERELVATIRRGGSTNYADSVKGRFTISRDNAKNTVYLQMNSLKPEDTAVYYCAADRRYPGGWGFEYNYWGQGTQVTVSS”, the “polyreactivity (PSR sort gate)” value is recorded as “low polyreactivity”. Next, “QVQLVESGGGLVHAGGSLRLSCAASGRTFWSYSMGWYRQAPGKEREFVAAISRRGGITYYADSVKGRFTISRDNAKTTVYLQMNSLKPEDTAVFYCAKGALSYYGGQVKYDYWGQGTQVTVSS”: “high polyreactivity”; “QVQLVESGGGLVHAGGSLRLSCAASGRTFWYYAMGWYRQAPGKERELVAAITRGGRTNYADSVKGRFTISRDNAKNTVYLQMNSLKPEDTAVYYCAADYRYPAHSYGYWGQGTQVTVSS”: “high polyreactivity”; “QVQLVESGGGLVHAGGSLRLSCAASGRTFYAYAMGWYRQAPGKERELVAAISWRGGDTYYADSVKGRFTISRDNAKNTVYLQMNSVKPEVTAVYFCCADVYRYSVYLIRNPMDYWGQGTQVTVSS”: “low polyreactivity”.

Turning to “QVQLVESGGGLVHAGGSLRLSCAASGSIFDYYALGWYRQAPGKERDLVASINSSVTGTYYADTVKGRFTISRDNAKNSVYLQMNSLKPEDTAVYYCAVKVYGRSGGYEYWGQGTQVTVSS”, the “polyreactivity (PSR sort gate)” value is “low polyreactivity”. Then “QVQLVESGGGLVHAGGSLRLSCAASGSIFVVYTMGWYRQAPGQERELVAAITQNGGSSTYYADSVKGRFTISRDNAKNTVYLQMNSLKPEDTAVYYCNKDILSPVVRIFKYGYDMDYWGQGTQVTVSS”, with “low polyreactivity”; and “QVQLVESGGGLVHAGGSLRLSCAASGSIFYHNPMGWYRQAPGKERELVAAISGRGGSTYYADSVKGRFTISRDNAKHTVYLQMNSLKPEDSAVYYCAADARYQNGGLYYWGQGTHVTVSS”, with “high polyreactivity”. Then “QVQLVESGGGLVHAGGSLRLSCAASGSIIDRNAMGWYRQAPGKERELVASITRGGSTNYADSVKGRFTISRDNEKNTVYLQMNSLKPEDTAVYYCADDRVYLGMFRYEYWGQGTQVTVSS”, with “high polyreactivity”; and “QVQLVESGGGLVHAGGSLRLSCAASGSIYGANDMGWYRKATGKERELVAAITRSGTRTYYADSVKGLFTISRDNAKNTVYLQMNSLKPEDTAVYYCAAVLRLSTLTTDFGYWGQGTQVTVSS”, with “high polyreactivity”. For the sequence “QVQLVESGGGLVHAGGSLRLSCAASGSNFGYNAMGWYIQAPGKERELVAAITSIGGNTYADSVKGRFTISRDNAKYTVYLQMNSLKPEDTAVYYCAAERNTDPIQVVYEFDYWGQGSQVTVSS”, the “polyreactivity (PSR sort gate)” value is on record as “low polyreactivity”. Then “QVQLVESGGGLVHAGGSLRLSCAASGSNFRYNAMGWYRQAPGKEREFYADSVKGRFTISRDNAKKTVYLQMNSLKPEDTAVYYCNATWYLWYWHDMDYWGQGTQGTVSS”, with “low polyreactivity”.

For the sequence “QVQLVESGGGLVHAGGSLRLSCAASGSNSNYYGMGWYRQAPGKERELVAAITWGGGRTNYADSVKGRFTISRDNAKNTVYLQMNSLKPEDTAVYYCAKVSVTHRYGAGGDYWGQGTQVTVSS”, the “polyreactivity (PSR sort gate)” value is listed as “low polyreactivity”. Then “QVQLVESGGGLVHAGGSLRLSCAASGSTFGYYAMGWYRQAPGTERELVADINWNGGSTNYADSVKGRFTISRDTEKKTVYLQMNSLKPEDTAVYFCAKGLRPYRFYYWGQGTQVTVSS”, with “high polyreactivity”; and “QVQLVESGGGLVHAGGSLRLSCAASGSTFIYNAMGWDRQAPGKERELVAAITWNGGSTYYADSVKGRFTLSRDIAKNTVYLQMISLNPEDTAVYYCAVDKGSQPHYDYWGQVTQVTVSS”, with “low polyreactivity”. Next, “QVQLVESGGGLVHAGGSLRLSCAASGSTFSRNTMGWYRQAPGKERELVAAITKSAVSTYNADSVKGRFTISRDNAKNTVYLQMNSLKPEDTAVYYCAKVYRTSTSKAYDYWGQGTQVTVSS”: “high polyreactivity”.

The values are drawn from the nanobody polyreactivity screen of Harvey et al. (2022).
